# Assay results reported in the RNAGym collection of RNA variant scans (doi:10.7554/elife.80360).
# B1: HDV Ribozyme (parent)
# chain: GGCCGGCAUGGUCCCAGCCUCCUCGCUGGCGCCGGCUGGGCAACAUUCCGAGGGGACCGUCCCCUCGGUAAUGGCGAAUGGGACCCA
# Variants of: B1
# Experiment: self-cleavage, relative activity (ratio to wild type); higher = more cleavage; co-transcriptional
row,Variant,self-cleavage
1,GGCCGGCAUGGUCCCAGCCUCCUCGCUGGCGCCGGCUGGGCAACAUUCCGAGGGGACCGUCGCCUCGGUAAUGGCGAAGGGGACCCA [C62G U79G],1.03
2,GGCCGGCAUGGUCCCAGCCUCCUCGCUGGCGCCGGCUGCGCAACAUUCCGAGGGGACCGUCCCCUCGGUAAUGUCGAAUGGGACCCA [G39C G74U],0.251
3,GGCCGGCAUGGUCCCAGCCUCCUAGCUGGCGCCGGCUGGGCAACAUUCCGAGGGGACCGUCCCCUCGGUAAUGUCGAAUGGGACCCA [C24A G74U],0.16
4,GGCCGGCAUGGUCCCAGCCUCCUCGCUGGCGCCGGCUGGGCAACAUUCCGAGGGGACCGUCCCCUCGCUAAUCGCGAAUGGGACCCA [G68C G73C],0.0511
5,GGCCGGCAUGGUCCCAGCCUCCUCGCUGGCGCCGGCUGGGCAACAUUCCGAGGAGACCGUCCCCUCGGUAUUGGCGAAUGGGACCCA [G54A A71U],0.912
6,GACCGGCAUGGUCCCAGCCUCCUCGCUGGCGCCGGCUGGGCAACAUUCCGAGGGGACCGUCCCCUCGGUAAUGGCGAAUGGGACCCU [G2A A87U],0.237
7,GGCCGACAUGGUCCCAGCCUCCUCGCUGGCGCCGGCUGGGCAACAUUCCGAGGGGACCGUCCCCUCGGUAUUGGCGAAUGGGACCCA [G6A A71U],0.554
8,GGCCGGCAUGGUCCCAGUCUCCUCGCUGGCGCCGGCUGGGCAACAUUCCGAGGGGACCGUUCCCUCGGUAAUGGCGAAUGGGACCCA [C18U C61U],0.481
9,GGCCGGCAUGGUCCCAGCCUCCUCGCUGGCGCCGGCUGGGCAACAUUCCGAGGGGACCGUCCCCUCGGUAAUGGUGAAUGGGACCCA [C75U],0.19
10,GGCCGGCAUGGUCCCAGCCACCUCGCUGGCGCCGGCUGGGCAACAUUCCUAGGGGACCGUCCCCUCGGUAAUGGCGAAUGGGACCCA [U20A G50U],0
11,GGCCGGCAUGGUCCCAGCCUCCUCGCUGGCGCCGGCUGGGCAACAUUCCGAGGGGACCGUACCCUCGGUAAUGACGAAUGGGACCCA [C61A G74A],0.561
12,GGCCGGCAUGGUCCCAGCCUCCUCGCUGGCGCCGGCUGGGCAACAUUCCGAGGGGGCCGUCCCCUCGAUAAUGGCGAAUGGGACCCA [A56G G68A],0.96
13,GGCCGGCAUGGUCCCAGCCUCCUCGCUGGCGCCGGCUGGUCAUCAUUCCGAGGGGACCGUCCCCUCGGUAAUGGCGAAUGGGACCCA [G40U A43U],0.146
14,GGCCGGCAUGGUCCCAGCCUCCUCGCUGGCGCCGGCUGGGCAACAUUCCGAGGGAACCGUCCCCUCGGUAAUGGCGAAUGGGACCCG [G55A A87G],0.966
15,GGUCGGCAUGGUCCCCGCCUCCUCGCUGGCGCCGGCUGGGCAACAUUCCGAGGGGACCGUCCCCUCGGUAAUGGCGAAUGGGACCCA [C3U A16C],0.437
16,GGCCGGCAUGGUCCCAGCCUCCUCGCUGGCGCCGGCGGGGCAACAUUCCGAGGGGACCGUCCCCUCGGUAAUCGCGAAUGGGACCCA [U37G G73C],0.0791
17,GGCCGGCAUGGUCCCAGCCUCCUCGCUGGCGCCGGCUGGGCUACAUUCCGAGGGGACCGUCCCCUGGGUAAUGGCGAAUGGGACCCA [A42U C66G],0.386
18,GGCCGGCAUGGUCCCAGCCUCCUCGCUGGCGCCGGCUGGCCAACCUUCCGAGGGGACCGUCCCCUCGGUAAUGGCGAAUGGGACCCA [G40C A45C],0.0845
19,GGCCGGCAUGGUCCCAGCCUCCUCGCUGGCGCCGGCUGGGCAACAUUCCGAGGGGACCGUCCCCUCGGUAAUGGCGAACGGGACUCA [U79C C85U],0.499
20,GGCCGGCAUGGUCCCAGCCUCCUCGCUGGCGCCGGCUGGGCAACAUUCCGAGGGGCCCGUCCCCUCGGUAAUGGCGAAUGGGACCCC [A56C A87C],1.04
21,GGCCGGCAUGGUCCCGGCCUCCUCGCUGGCGCCGGCUGGGCAACAUUGCGAGGGGACCGUCCCCUCGGUAAUGGCGAAUGGGACCCA [A16G C48G],0.914
22,GUCCGGCAUGGUCCCAGCCUCCUCGCUGGCGCCGGCUGGGCAACAUUCCGAGGGAACCGUCCCCUCGGUAAUGGCGAAUGGGACCCA [G2U G55A],0.0732

row,Variant,self-cleavage
1,GGCCGUCAUGGUCCCAGCCUCCUCGCUGGCGCCUGCUGGGCAACAUUCCGAGGGGACCGUCCCCUCGGUAAUGGCGAAUGGGACCCA [G6U G34U],0.0755
2,GGCCGGCAUGGUCCCAGCCUCCUCGCUGGCGCCGGUUGGGCAACAUUCCGAGGGGACCGUCCCCUCGGUGAUGGCGAAUGGGACCCA [C36U A70G],0.969
3,CGCCGGCAUGGUCCCAGCCUCCUCGCUGGCGCCGGCUGGGCAACAUUCCGAGGGGACAGUCCCCUCGGUAAUGGCGAAUGGGACCCA [G1C C58A],0.297
4,GGCCGGCAUGGUCCGAGCCUCCUCGCUGGCGACGGCUGGGCAACAUUCCGAGGGGACCGUCCCCUCGGUAAUGGCGAAUGGGACCCA [C15G C32A],0.158
5,GGCCGGCAUGGUCCCAGCCUCCUCGCAGGCGGCGGCUGGGCAACAUUCCGAGGGGACCGUCCCCUCGGUAAUGGCGAAUGGGACCCA [U27A C32G],0.0545
6,GGCCGGCAUGGUCCCAGCCUCCUCGCUGGCGCCGGCUGGGCAACAUUCCGCGGGGACCGUCCCCUCGGUAAUGGCGAAUGGGACGCA [A51C C85G],0.831
7,GGCCGGCAUGGUCCCAGCCUCCUCGCUGGCGCCGGCUGGGCAACAUUGCGAGGGGACCGUCCCCUCGGUAAUGGCUAAUGGGACCCA [C48G G76U],0.997
8,GGCCGGCAUGGUCCCAGCCUCCUCGCUGGCGCCGGCUGGGCAACAUUCAGAGGGGACCGUCCCCUCGGUAAUGGCGAAGGGGACCCA [C49A U79G],0.665
9,GGCCGGCAUGGUCCCGGCCUCCUCGCUGGCGCCGGCUGGUCAACAUUCCGAGGGGACCGUCCCCUCGGUAAUGGCGAAUGGGACCCA [A16G G40U],0.719
10,GGCCGUCAUGGUCCCAGCCUCCCCGCUGGCGCCGGCUGGGCAACAUUCCGAGGGGACCGUCCCCUCGGUAAUGGCGAAUGGGACCCA [G6U U23C],0.312
11,GGCCGGCAUGGUCCCAGCCGCCUCGCUGGCGCCGGCUGGGCAACAUUCCGAGGGGACCGUCCCCUCGGUAAUGGCGAAUGGGACCCA [U20G],0.205
12,GGCCGGCACGGUCCCAGCCUCCUCGCUGGCGCCGGCUGGGCAACAUUCCGAGGGGACCGUCCCCUCGGUAAUGGCGAAUGGUACCCA [U9C G82U],0.201
13,GGGCGGCAUGGUCCCAGCCUCCUCGCUGGCGCCGGCUGGGCAACAUUCCGAGGGGACCGUCCCUUCGGUAAUGGCGAAUGGGACCCA [C3G C64U],0.726
14,GGCCGGCAUGGUCCCAGCCUCCUCGCUGGAGCCGGCUGGGCAACAUUCCGAGGGGACCGUCCCCUCAGUAAUGGCGAAUGGGACCCA [C30A G67A],0.623
15,GGCCGGCAUGGUCCCAGCCUUCUCGCUGGCGCCGGCUGGGCAACAUUCCGAGGGGACCGUCCCCUCGGUAAUGGUGAAUGGGACCCA [C21U C75U],0.0248
16,GGCCGGCAGGGUCCCAGCCUCCUCGCUGGCGCCGGCUGGGCAACAUUCCGAGGGGACCGUCCCCUCGGUAAUGGCGAGUGGGACCCA [U9G A78G],0.166
17,GGCCGGCAUGGUCCCAGCCUCCUCGCUGGCGCCGGCUGGGCACCAUUCCGAGGGGACCGUCCCCUCGGUAAUGGCGAAUGGGACGCA [A43C C85G],0.519
18,GGCCGGCAUGGUCCCAGCCUCCUCGCUGCCGCCGGCUGGGCAACAUUCCGAGGGGACCGCCCCCUCGGUAAUGGCGAAUGGGACCCA [G29C U60C],0.0449
19,GGGCGGCAUGGUCCCAGCCUCCUCGCUGGCGCCGGCUGGGCAACAUUCCGAGGGGACCGUCCGCUCGGUAAUGGCGAAUGGGACCCA [C3G C63G],0.307
20,GUCCGCCAUGGUCCCAGCCUCCUCGCUGGCGCCGGCUGGGCAACAUUCCGAGGGGACCGUCCCCUCGGUAAUGGCGAAUGGGACCCA [G2U G6C],0.106
21,GGCCGGCAUGGUCCCAGCCACCUCGCUGGCGCCGGCUGGGCAACAUUCCGAGGGGACCGUCCACUCGGUAAUGGCGAAUGGGACCCA [U20A C63A],0.0504
22,GGCCGGCAUGGUCACAGCCUCCUCGCUGGCGCCGGCUGGGCGACAUUCCGAGGGGACCGUCCCCUCGGUAAUGGCGAAUGGGACCCA [C14A A42G],0.277

row,Variant,self-cleavage
1,GGCCGGCAUGGUCCCAGCCUCCUCGCUGGCGCCGGCUGGGCAACAUUCCGAGGGGACCGUCCCCUCGCAAAUGGCGAAUGGGACCCA [G68C U69A],0.739
2,GGCCGGCAUGGUCCCAGCCUCCUCGGUGGCGCCGGCUGGGCAACAUUCCGAGGGGACCGUCCCCUCGGUAAUGGCGAAUGGGACCCU [C26G A87U],0.976
3,GGCCGGCAUGGUCCCAGCCUCCUCGCUGGCGCCGGCUGGGCAACAUUCCGAGGGGACCGUCCCCUCGGUAAUGGCAAAAGGGACCCA [G76A U79A],0.831
4,GGCCGGCAUGGUCCCAGCCUCCUCGCUGGCGCCGGCUGGGCAACAUUCCGAGUGGACCGUCCCCUCGGUAAUGGCCAAUGGGACCCA [G53U G76C],1.11
5,GGCCGGCAUGGUCGCAGCCUCCGCGCUGGCGCCGGCUGGGCAACAUUCCGAGGGGACCGUCCCCUCGGUAAUGGCGAAUGGGACCCA [C14G U23G],0.453
6,GGCGGGCAUGGUCCCAGCCUCCACGCUGGCGCCGGCUGGGCAACAUUCCGAGGGGACCGUCCCCUCGGUAAUGGCGAAUGGGACCCA [C4G U23A],0.47
7,GGCCGGCAUGGUCCCAGCCUCCUCGCUGGCGCCGGCUGGGCAACAUUCCGAGGGGACCCUCCCCUCGGUAAGGGCGAAUGGGACCCA [G59C U72G],0.675
8,GGCCGGCAUGGUCCCAGCCUUCUCGCUGGCGCCGGCUGGGCAACAUUCCGAGGGGACCGUCCACUCGGUAAUGGCGAAUGGGACCCA [C21U C63A],0.234
9,GGCCGGCAUGGUCCCAGCCUCCUCGCUGGCGCCGGCUGGGCAACAUUCCGAGGCGACCGUACCCUCGGUAAUGGCGAAUGGGACCCA [G54C C61A],0.926
10,GGCCUGCAUGGUCCCAGCCUCCUCGCUGGCGCCGGCUGGGCAACAUUCCGAGGGGACCGUCCCCUCGGUAAUGGCGAAUGGGUCCCA [G5U A83U],0
11,GGCCGGCAUGGUCCCAGCCUCCUCGCUGGCGCCGGCUGGGCAACAUUCCGAGAGGACCGUCCCUUCGGUAAUGGCGAAUGGGACCCA [G53A C64U],0.968
12,GGCCGGCAUGGUCCGAGCCUCCUCGCUAGCGCCGGCUGGGCAACAUUCCGAGGGGACCGUCCCCUCGGUAAUGGCGAAUGGGACCCA [C15G G28A],0.0627
13,GGCCGGCAUGGUCCCAGCCUCCUCGCUGGCGACGGCUGGGCAACAUUCCGAGGGGACCGUCCCCUCGGUAAUGGCGAAUGGGUCCCA [C32A A83U],0
14,GGCCGGCAUGGUCCCAGCCUCCUCGCUGGCGCCGGCUGGGCAACAUUCCGAGGGGACGGUCCCCUCGGUAAUGGCGAAUGGGAUCCA [C58G C84U],0.721
15,GGCCGGCAUGGUCCCAGACUCCUCGCUGGCGCCGGCUGGGCAACAUUCCGAGGGGACCGUCCCCUCGGUAAUGGCGAAUGCGACCCA [C18A G81C],0.163
16,GGCCGGCAUAGUCCCAGCCUCCUCGCUGGCGCCGGCUGGGCUACAUUCCGAGGGGACCGUCCCCUCGGUAAUGGCGAAUGGGACCCA [G10A A42U],0.244
17,GGCCGGCAUGGUCCCAGCCUCCUCGCUGGCGCCGGCUGGGCAACAUUCCGAGGGGACCGUCCCCCCGGUAAUGGCUAAUGGGACCCA [U65C G76U],1.14
18,GGCCGGCAUGGUCCCAGCCUCCUCGCUGGCGCCGGCUCGACAACAUUCCGAGGGGACCGUCCCCUCGGUAAUGGCGAAUGGGACCCA [G38C G40A],0.0978
19,GGCCGGCAGGGUCCCAGCCUCCUCGCUGGCGCCGGCUGGGCAACAUUCCGUGGGGACCGUCCCCUCGGUAAUGGCGAAUGGGACCCA [U9G A51U],1.22
20,GGCCGGCAUGGUCCCAGCCUCCUCGCUGGCGCCGGCUGGGCAACAUUCCCAGGGGACCGUCCCCUCGGUAAUGGCGCAUGGGACCCA [G50C A77C],0.302
